# Measurements from PMC11036078, “PD‐1 inhibition with retifanlimab and/or arginase inhibition with INCB001158 in Japanese patients with solid tumors: A phase I study” (Cancer Medicine, 2024).
# Values joined by “and” are separate entries in the source; they are usually repeats but may differ in a detail not shown here. Equal entries are not always repeated. “Also recorded” adds a separate entry of the source. Where two headings read alike, the source gives them in different places.
# Assays:
# [1] = Safety and tolerability (TEAEs, DLTs, irAEs; NCI CTCAE v5.0), phase Ib POD1UM-104; details: in vivo
# Description: This was a phase Ib, open‐label, multicenter study (POD1UM‐104 [NCT03910530]). The study was conducted in 2 parts. In Part 1, patients received single‐agent retifanlimab or escalating doses of single‐agent INCB001158 to confirm the RP2D of each agent. Single‐agent dosing was performed to comply with local regulations. In Part 2, patients received the combination of retifanlimab and INCB001158 at their respective RP2D determined in Part 1, to further explore safety and preliminary evidence of clinical activity. Treatment cycles in Part 1 and Part 2 were 28 days, and patients could receive treatment for up to 2 years, or until disease progression, unacceptable toxicity, death, or patient withdrawal.
# In Part 1, 6 patients received retifanlimab 500 mg every 4 weeks (Q4W), given as an i.v. infusion over 60 min; this dose was based on the RP2D determined from global studies. The starting dose of INCB001158 was 75 mg taken orally twice daily (BID). Dose escalation of INCB001158 followed a standard 3 + 3 design; if 75 mg BID was deemed to be tolerable in at least 3 patients, a 100‐mg BID dose level cohort comprising at least 3 patients would be opened.
# DLTs were assessed by the investigator according to the National Cancer Institute (NCI) Common Terminology Criteria for Adverse Events (CTCAE) v5.0 criteria (Table S1).
# The primary endpoints of the study were safety, tolerability, DLTs, and RP2D of single‐agent retifanlimab, INCB001158, and the combination. Adverse events (AEs) were graded by NCI CTCAE v5.0, and immune‐related adverse events (irAEs) were monitored as AEs of special interest. Physical examinations, monitoring of vital signs, electrocardiograms, and laboratory assessments were conducted throughout the study.
# (§1) Safety and efficacy analyses were conducted in the full analysis set, which comprised all enrolled patients who received at least 1 dose of the study drug.
# (§2) Safety data were summarized using descriptive statistics. PK parameters were summarized by study part, treatment regimen, cohort, dose levels, and/or visit. ORR and DCR were reported with their exact 95% confidence intervals (CIs); DOR was based on the Kaplan–Meier estimate of the distribution function, and the estimated median along with 95% CI was reported. Statistical analyses were performed using SAS® software v9.4 or later (SAS Institute Inc., Cary, NC, USA).
# [2] = Retifanlimab serum pharmacokinetics (electrochemiluminescence immunoassay, noncompartmental analysis); type: in vivo, Japanese patients; details: for Retifanlimab tmax: median (min, max)
# Description: (§3) Pharmacokinetics of single‐agent retifanlimab and INCB001158, and the combination, were secondary endpoints of the study. The detection of anti‐drug antibodies (ADAs) was an exploratory endpoint. Blood samples for retifanlimab PK assessments were taken on days 1 (−2 h pre‐dose, end of infusion, and 6 h post‐dose), 2, 8, and 15 (no specified time) of cycle 1, day 1 of cycles 2–8 (−2 h pre‐dose, and end of infusion on cycles 2 and 6 only), and day 1 of every 4 cycles after cycle 8 (−2 h pre‐dose). Samples for ADA assessment were collected at the same time as for PK analysis, and an additional sample was collected at safety follow‐up on day 15 (no specified time). Blood samples for INCB001158 were collected pre‐dose, 0.5, 1, 2, 4, 6, and 8 h post‐dose on days 1 and 15 of cycle 1, 12 h post‐dose on day 1 of cycle 1, and pre‐dose on days 2 and 8 for cycle 1, and day 1 of cycle 2. Serum concentrations of retifanlimab were determined using an electrochemiluminescence immunoassay method, and plasma concentrations of INCB001158 were measured using a validated liquid chromatography with tandem mass spectrometry assay (Incyte Corporation, Wilmington, DE, USA). ADAs against retifanlimab were monitored using a bridging immunoassay (Incyte Corporation).
# Pharmacokinetics parameters were derived from concentrations versus time data using model‐independent noncompartmental analysis methods (WinNonlin v8.2, Certara USA Inc., Princeton, NJ, USA), and included maximum observed serum or plasma concentration (C max), serum or plasma concentration observed at the end of the dosing interval (C tau), time to maximum observed serum or plasma concentration (t max), area under the serum or plasma concentration–time curve (AUC) from time 0 to the end of the dosing interval (AUCtau), AUC from time 0 to infinity (AUC0‐∞), apparent terminal‐phase disposition half‐life, clearance, and volume of distribution. […]
# [3] = tested on: advanced solid tumors; assay: Clinical activity by investigator per RECIST v1.1 (ORR, DCR, DOR); type: in vivo, Japanese patients
# Description: Preliminary clinical activity of single‐agent retifanlimab and INCB001158, and the combination, was an additional secondary endpoint. Diagnostic imaging was performed by computed tomography scan every 8 ± 1 weeks. Clinical activity was assessed by measuring overall response rate (ORR), defined as the percentage of patients experiencing a complete or partial response (CR or PR) as determined by the investigator according to Response Evaluation Criteria in Solid Tumors (RECIST) v1.1; disease control rate (DCR), defined as the percentage of patients maintaining either an objective response or stable disease (SD) for at least 12 weeks per RECIST v1.1; and duration of response (DOR), defined as the time from first observed response until onset of progressive disease (PD) as determined by the investigator according to RECIST v1.1 or death from any cause.
# as §1, §2
# [4] = tested on: ADAs against retifanlimab; assay: Anti-drug antibodies against retifanlimab (bridging immunoassay); details: samples from 12 Japanese patients
# Description: as §3
# [5] = Western patients; ref POD1UM‐101 (NCT03059823); cited from earlier work
# [6] = tested on: advanced solid tumors; details: cited from earlier work
# [7] = first dose, in combination with INCB001158, n = 3
# [8] = first dose, monotherapy 500 mg Q4W, n = 6
# [9] = first dose, POD1UM-104 vs POD1UM‐101
# [10] = RECIST v1.1, investigator, n = 6 per group
# [11] = RECIST v1.1, investigator, n = 6 per group, listed as retifanlimab
substance,measurement,setting,value
"Retifanlimab: humanized, hinge‐stabilized immunoglobulin G4κ monoclonal antibody targeting PD‐1",Grade 3 AEs reported but not occurring during the treatment window,[1],lymphocyte count decreased
same,Retifanlimab infusion interruption because of a TEAE,[1],1 (16.7) n (%)
same,Serious TEAE after data cutoff,[1],myocarditis
same,Serious TEAEs (terms),[1],"grade 3 femoral neck fracture (n = 1), grade 3 ileus and pyelonephritis (n = 1)"
same,TEAE: ALT increased,[1],1 (16.7) n (%)
same,TEAE: AST increased,[1],1 (16.7) n (%)
same,TEAE: Amylase increased,[1],2 (33.3) n (%)
same,TEAE: Anemia,[1],1 (16.7) n (%)
same,TEAE: Blood creatinine increased,[1],1 (16.7) n (%)
same,TEAE: Diarrhea,[1],1 (16.7) n (%)
same,TEAE: Nausea,[1],1 (16.7) n (%)
same,TEAE: Tumor pain,[1],0 n (%)
same,TRAEs reported (terms),[1],"infusion‐related reactions (n = 1), pruritus (n = 1), rash (n = 1), and 1 patient who reported multiple TRAEs, consisting of anemia worsening, fatigue, diarrhea, pruritus, rash, elevated lipase, increased alanine aminotransferase (ALT), and increased aspartate aminotransferase (AST)"
same,Treatment discontinuation because of a TEAE,[1],0 n (%)
same,Retifanlimab tmax,"[2]; 500 mg Q4W i.v. monotherapy, first dose, POD1UM-104, n = 6","1.9 (1.1, 7.1) h"
same,Geometric mean clearance normalized for body weight,[2]; Japanese patients [POD1UM‐104],3.1 mL/day/kg
same,Geometric mean volume of distribution normalized for body weight,[2]; Japanese patients [POD1UM‐104],0.0955 L/kg
same,Mean Ctau at steady state higher in Japanese than Western patients,[2]; POD1UM-104 vs POD1UM‐101,43%
same,"Drug–drug interaction (retifanlimab PK, combination vs monotherapy cohorts)",[2]; combination cohort,no drug–drug interaction
same,Retifanlimab tmax,"[2]; first dose, 500 mg Q4W in combination with INCB001158, n = 3","0.82 (0.78, 6.0) h"
same,Retifanlimab geometric mean AUCtau,[2]; [7],2280 mg·days/L
same,Retifanlimab geometric mean Cmax,[2]; [7],187 mg/L
same,Retifanlimab geometric mean Ctau,[2]; [7],19.0 mg/L
same,Retifanlimab median tmax,[2]; [7],0.82 h
same,Retifanlimab geometric mean AUC0‐∞,[2]; [8],2990 mg·days/L
same,Retifanlimab geometric mean AUCtau,[2]; [8],1910 mg·days/L
same,Retifanlimab geometric mean Cmax,[2]; [8],209 mg/L
same,Retifanlimab geometric mean Ctau at the end of the 4‐week dosing period,[2]; [8],33.9 mg/L
same,Retifanlimab geometric mean clearance,[2]; [8],0.167 L/day
same,Retifanlimab geometric mean half‐life,[2]; [8],21.2 days
same,"Retifanlimab half‐life, range",[2]; [8],16.1 to 30.4 days
same,Retifanlimab median tmax,[2]; [8],1.9 h
same,Retifanlimab volume of distribution,[2]; [8],5.12 L
same,Geometric mean AUC0‐∞ higher in Japanese than Western patients,[2]; [9],66%
same,Geometric mean AUCtau higher in Japanese than Western patients,[2]; [9],47%
same,Geometric mean Cmax higher in Japanese than Western patients,[2]; [9],31%
same,Retifanlimab trough concentrations from cycle 1 to cycle 7,"[2]; monotherapy, 3 patients with available data",generally increased
same,Median DOR,"[3]; Kaplan–Meier, 95% CI, 6.8 months‐not estimable, median follow‐up 11.6 months",not estimable
same,Best overall response: Complete response,[3]; [10],1 (16.7) n (%)
same,Best overall response: Partial response,[3]; [10],1 (16.7) n (%)
same,Best overall response: Progressive disease,[3]; [10],3 (50.0) n (%)
same,Best overall response: Stable disease,[3]; [10],1 (16.7) n (%)
same,Best overall response: Complete response,[3]; [11],1 n (%)
same,Best overall response: Partial response,[3]; [11],1 n (%)
same,Best overall response: Stable disease,[3]; [11],1 n (%)
same,ORR,"[3]; RECIST v1.1, n = 6, 95% CI, 4.3–77.7",33.3% and 33%
same,DCR,"[3]; RECIST v1.1, n = 6 per group, 95% CI, 11.8–88.2",50%
same,DOR of the patient with CR,"[3]; endometrial cancer, ongoing at data cutoff",16.4 months
same,DOR of the patient with PR,[3]; lung cancer,6.8 months
same,Retifanlimab ADAs detected,[4],No retifanlimab ADAs were detected; also recorded: No ADAs toward retifanlimab were observed
same,Geometric mean clearance normalized for body weight,[5],4.05 mL/day/kg
same,Geometric mean volume of distribution normalized for body weight,[5],0.0857 L/kg
same,Patients with a response,"[6]; first‐in‐human study, endometrial cancer, 3 of 29 patients",10%
same,Patients with a response,"[6]; first‐in‐human study, non‐small cell lung cancer, 6 of 26 patients",23%
same,Patients with SD,"[6]; phase II study, SCAC",35%
same,Patients with a response,"[6]; phase II study, SCAC",14%
same,Patients with an objective response,"[6]; recurrent MSI‐H or dMMR endometrial cancer, 33 of 76 patients",43%
